# Target: PtrMYB074 (Populus trichocarpa, UniProt B9IEX5 1-371)
# Assay: EMSA
binder,measurement,value
PtrbHLH186 promoter W-box probe (dsDNA) DNA 1: CTATAGTTTGACTGTA DNA 2: TACAGTCAAACTATAG,binding result,no binding

# Reference: paper PMC9314101
